Results as given in the RNAGym collection of RNA variant scans (doi:10.7554/elife.80360).

B1: CPEB3 Ribozyme (parent)
chain: GGGGGCCACAGCAGAAGCGUUCACGUCGCGGCCCCUGUCAGAUUCUGGUGAAUCUGCGAAUUCUGCUGU

Variants of: B1
Experiment: self-cleavage, relative activity (ratio to wild type); higher = more cleavage; co-transcriptional

Row | Variant | self-cleavage
1 | G17C G31A | 0.111
2 | C18A A23U | 0.179
3 | C18A A23C | 0.128
4 | G17U | 0.643
5 | G17C | 0.166
6 | G17C C54U | 0.145
7 | C18A G37C | 0.213
8 | G17U G19C | 0.16
9 | C18A U46C | 0.228
10 | G17C U61A | 0.132
11 | G17U G58A | 0.343
12 | C18A G19A | 0.135
13 | C18A G56A | 0.156
14 | C18A G56U | 0.133
15 | C18A G58C | 0.193
16 | G17U A59C | 0.179
17 | G17U U69G | 0.768
18 | G17U U69A | 0.675
19 | G17U G68C | 0.818
20 | G17U G68U | 0.768
21 | G17U C33G | 0.224
22 | G17A U46A | 0.634
23 | G17A U46G | 0.591
24 | G17C G50C | 0.111

Row | Variant | self-cleavage
25 | C18A A60C | 0.0911
26 | C18A A60G | 0.195
27 | G17C U55A | 0.177
28 | G17U U44G | 0.31
29 | G17A G48A | 0.611
30 | G17A G48U | 0.614
31 | C18A C27U | 0.12
32 | C18A C27G | 0.112
33 | G17U C57A | 0.192
34 | G17U C57G | 0.16
35 | G17C C18A | 0.118
36 | G17C C18G | 0.148
37 | G17C U20C | 0.157
38 | G17A G56C | 0.238
39 | G17A G56U | 0.178
40 | G17A G56A | 0.234
41 | G17C G68U | 0.21
42 | G17U G28U | 0.134
43 | G17U C27U | 0.105
44 | G17C G47A | 0.185
45 | G17C G47U | 0.149
46 | C18A U43C | 0.161
47 | G17A U43C | 0.336
48 | G17A U43G | 0.177

Row | Variant | self-cleavage
49 | G17A U43A | 0.253
50 | G17U U61C | 0.186
51 | G17U U61G | 0.344
52 | G17U U38C | 0.413
53 | C18A U38G | 0.212
54 | G17U A23U | 0.714
55 | G17U C54A | 0.188
56 | G17U C54U | 0.461
57 | C18A A40C | 0.197
58 | G17C C57G | 0.0859
59 | G17C C32G | 0.0951
60 | G17A U69A | 0.703
61 | G17U U67A | 0.513
62 | G17U U67G | 0.627
63 | C18A A52C | 0.152
64 | C18A G65C | 0.217
65 | G17C U67A | 0.204
66 | G17U U64A | 0.201
67 | G17U U64G | 0.183
68 | C18A C66A | 0.13
69 | C18A C66G | 0.147
70 | C18A C66U | 0.153
71 | G17U U36C | 0.252
72 | G17C G37U | 0.107

Row | Variant | self-cleavage
73 | G17A U26A | 0.349
74 | G17C C35G | 0.153
75 | G17C C35U | 0.15
76 | G17A G47U | 0.562
77 | G17C C39U | 0.117
78 | G17A U38A | 0.241
79 | G17U U55C | 0.227
80 | C18A C29U | 0.0504
81 | C18A C29A | 0.127
82 | G17A U67C | 0.491
83 | G17C U36C | 0.118
84 | G17U U46G | 0.599
85 | G17U U46A | 0.624
86 | C18A A51C | 0.164
87 | G17U G25U | 0.121
88 | G17A G30C | 0.161
89 | G17C C33G | 0.171
90 | G17A U61A | 0.231
91 | G17A U61C | 0.264
92 | G17C U21A | 0.116
93 | G17C C27U | 0.16
94 | G17C A51C | 0.165
95 | G17A G37U | 0.146
96 | G17U G47U | 0.661

Row | Variant | self-cleavage
97 | C18A G41A | 0.156
98 | G17U U53C | 0.188
99 | G17C A42G | 0.128
100 | G17U U43G | 0.163
101 | G17U U43A | 0.218
102 | G17C C63A | 0.162
103 | C18A U26C | 0.17
104 | C18A U26G | 0.118
105 | G17U A42G | 0.353
106 | G17A U62A | 0.193
107 | G17C U69C | 0.284
108 | C18A C57U | 0.157
109 | C18A C57G | 0.114
110 | G17C C29G | 0.931
111 | G17C C29U | 0.199
112 | G17U U21C | 0.14
113 | C18A U44C | 0.106
114 | C18A A42G | 0.208
115 | C18A G48C | 0.146
116 | C18A G48A | 0.227
117 | G17C U44A | 0.24
118 | G17C U44G | 0.137
119 | G17C U44C | 0.141
120 | G17C C22U | 0.145

Row | Variant | self-cleavage
121 | G17U A40C | 0.147
122 | G17U A40G | 0.352
123 | G17U C45A | 0.447
124 | G17C C45A | 0.119
125 | G17U G65C | 0.218
126 | G17U G30A | 0.184
127 | C18A G68U | 0.264
128 | C18A C34U | 0.16
129 | C18A C34G | 0.14
130 | G17C U38A | 0.155
131 | G17U G48A | 0.748
132 | G17A U20G | 0.098
133 | G17A U20A | 0.0639
134 | C18A G25A | 0.163
135 | C18A A59U | 0.123
136 | C18A A59G | 0.145
137 | C18A C54A | 0.162
138 | G17C A52C | 0.126
139 | G17C U53A | 0.144
140 | G17C U53C | 0.134
141 | C18A C63A | 0.119
142 | C18A U20G | 0.0591
143 | C18A U20A | 0.193
144 | G17C A59G | 0.122

Row | Variant | self-cleavage
145 | G17C A59C | 0.104
146 | C18A C33A | 0.153
147 | C18A U36G | 0.145
148 | G17C U62C | 0.194
149 | G17C G48A | 0.137
150 | C18A C35A | 0.155
151 | G17A U55A | 0.195
152 | G17A U55C | 0.141
153 | G17A G31A | 0.158
154 | G17U C66A | 0.239
155 | G17U C66U | 0.412
156 | G17C C66A | 0.145
157 | G17C C66G | 0.136
158 | C18A C24G | 0.186
159 | G17U C34A | 0.195
160 | G17C G65C | 0.195
161 | C18A U49C | 0.195
162 | C18A U49A | 0.16
163 | G17C G41A | 0.136
164 | G17U C32U | 0.514
165 | G17U C32G | 0.135
166 | G17U C39U | 0.278
167 | G17U A52U | 0.429
